Experimental data from patent publication US20240409647A1, “BISPECIFIC BINDING PROTEINS AGAINST ALARMINS AND USES THEREOF” (SINOMAB BIOSCIENCE LIMITED, priority 2022, published 2024).

What was measured:
TSLP = target: T1, TSLP (Homo sapiens, UniProt Q969D9); assay: ELISA, antigen binding specificity of bsBp (TSLP); parameters: key: −: no binding; +: weak; ++: moderate; +++: strong binding; N/A refers to no binding affinity; conditions: 33.5 nM; antigen coated at 2 μg/mL
T1 construct: purchased R&D systems
Protocol: (§1) Binding specificities of bsBp were evaluated by standard ELISA assays. Briefly, ELISA strips were coated with the respective target antigens, including IL17RB, IL-33, or TSLP (R&D systems) at a final concentration of 2 μg/mL. Bispecific antibodies were added at 33.5 nM to ELISA strips coated with the desired antigen. After incubation under room temperature for 2 hours, ELISA strips were washed five times with PBS. […] No result is provided for SM17-human TSLPR as the yield was too low to be detected.

IL-17RB = target: T2, IL-17RB (Homo sapiens, UniProt Q9NRM6); assay: ELISA, antigen binding specificity of bsBp (IL-17RB); parameters: key: −: no binding; +: weak; ++: moderate; +++: strong binding; N/A refers to no binding affinity; conditions: 33.5 nM; antigen coated at 2 μg/mL
T2 construct: purchased R&D systems
T2 sequence (Q9NRM6 18-502): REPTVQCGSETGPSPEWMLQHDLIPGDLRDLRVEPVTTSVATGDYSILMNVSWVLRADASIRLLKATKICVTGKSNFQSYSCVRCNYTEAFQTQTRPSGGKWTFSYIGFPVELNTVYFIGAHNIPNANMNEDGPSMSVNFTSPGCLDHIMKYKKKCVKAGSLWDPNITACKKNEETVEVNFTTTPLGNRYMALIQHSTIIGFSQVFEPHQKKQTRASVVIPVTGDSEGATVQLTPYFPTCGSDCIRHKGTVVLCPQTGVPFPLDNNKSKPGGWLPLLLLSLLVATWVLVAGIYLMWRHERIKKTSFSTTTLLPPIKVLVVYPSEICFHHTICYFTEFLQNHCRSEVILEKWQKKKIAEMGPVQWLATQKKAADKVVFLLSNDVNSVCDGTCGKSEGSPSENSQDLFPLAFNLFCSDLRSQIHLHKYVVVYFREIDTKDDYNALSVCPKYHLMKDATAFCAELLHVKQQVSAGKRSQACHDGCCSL
Protocol: as §1

IL-33 = target: T3, IL-33 (Homo sapiens, UniProt O95760); assay: ELISA, antigen binding specificity of bsBp (IL-33); parameters: key: −: no binding; +: weak; ++: moderate; +++: strong binding; N/A refers to no binding affinity; conditions: 33.5 nM; antigen coated at 2 μg/mL
T3 construct: purchased R&D systems
T3 sequence (O95760 95-270): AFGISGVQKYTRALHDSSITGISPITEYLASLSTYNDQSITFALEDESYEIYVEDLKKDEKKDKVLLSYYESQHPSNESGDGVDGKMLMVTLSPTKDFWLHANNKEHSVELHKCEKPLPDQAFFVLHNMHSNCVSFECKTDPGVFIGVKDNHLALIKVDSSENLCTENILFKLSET
Protocol: as §1

hIL17RC = target: T4, hIL17RC (Homo sapiens, UniProt Q8NAC3); assay: ELISA, SM17 specificity against IL-17 receptor subunits (IL17RC); format: binding; conditions: 0.4 to 0.00064 μg/mL
T4 construct: purchased R&D systems
T4 sequence (Q8NAC3 21-791): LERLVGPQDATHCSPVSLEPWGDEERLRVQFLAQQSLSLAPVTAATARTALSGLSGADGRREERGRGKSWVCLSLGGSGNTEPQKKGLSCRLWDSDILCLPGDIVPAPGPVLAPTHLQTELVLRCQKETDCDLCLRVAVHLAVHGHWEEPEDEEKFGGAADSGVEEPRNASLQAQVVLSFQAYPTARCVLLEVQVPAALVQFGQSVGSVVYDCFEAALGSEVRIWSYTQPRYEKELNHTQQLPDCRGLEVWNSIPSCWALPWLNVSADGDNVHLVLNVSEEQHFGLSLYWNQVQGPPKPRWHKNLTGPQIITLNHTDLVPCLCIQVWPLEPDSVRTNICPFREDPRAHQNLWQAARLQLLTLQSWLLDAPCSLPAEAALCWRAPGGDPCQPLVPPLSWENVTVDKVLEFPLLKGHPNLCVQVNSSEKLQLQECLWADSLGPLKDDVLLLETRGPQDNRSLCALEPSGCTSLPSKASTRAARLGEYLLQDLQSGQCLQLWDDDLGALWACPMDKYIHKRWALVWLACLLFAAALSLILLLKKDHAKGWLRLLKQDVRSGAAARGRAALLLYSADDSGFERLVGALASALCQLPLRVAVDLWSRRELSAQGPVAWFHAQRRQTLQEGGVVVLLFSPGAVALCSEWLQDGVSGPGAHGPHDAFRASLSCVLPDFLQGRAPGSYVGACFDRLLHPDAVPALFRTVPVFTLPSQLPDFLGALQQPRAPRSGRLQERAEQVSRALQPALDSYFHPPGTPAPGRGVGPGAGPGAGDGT
Protocol: (§2) A standard ELISA method was used to determine the specificity of SM17 against other human IL17 receptor subunits. Similarly, serially diluted SM17 at different concentrations (final concentrations at 0.4, 0.08, 0.016, 0.0032 and 0.00064 μg/m, respectively) was added to the wells of ELISA plates coated either with human IL-17 receptor subunits A, C, D and E (IL17RA, IL17RC, IL17RD, and IL17RE) (R&D systems).

hIL 17RD = target: T5, hIL 17RD (Homo sapiens, UniProt Q8NFM7); assay: ELISA, SM17 specificity against IL-17 receptor subunits (IL17RD); format: binding; conditions: 0.4 to 0.00064 μg/mL
T5 construct: purchased R&D systems
T5 sequence (Q8NFM7 17-739): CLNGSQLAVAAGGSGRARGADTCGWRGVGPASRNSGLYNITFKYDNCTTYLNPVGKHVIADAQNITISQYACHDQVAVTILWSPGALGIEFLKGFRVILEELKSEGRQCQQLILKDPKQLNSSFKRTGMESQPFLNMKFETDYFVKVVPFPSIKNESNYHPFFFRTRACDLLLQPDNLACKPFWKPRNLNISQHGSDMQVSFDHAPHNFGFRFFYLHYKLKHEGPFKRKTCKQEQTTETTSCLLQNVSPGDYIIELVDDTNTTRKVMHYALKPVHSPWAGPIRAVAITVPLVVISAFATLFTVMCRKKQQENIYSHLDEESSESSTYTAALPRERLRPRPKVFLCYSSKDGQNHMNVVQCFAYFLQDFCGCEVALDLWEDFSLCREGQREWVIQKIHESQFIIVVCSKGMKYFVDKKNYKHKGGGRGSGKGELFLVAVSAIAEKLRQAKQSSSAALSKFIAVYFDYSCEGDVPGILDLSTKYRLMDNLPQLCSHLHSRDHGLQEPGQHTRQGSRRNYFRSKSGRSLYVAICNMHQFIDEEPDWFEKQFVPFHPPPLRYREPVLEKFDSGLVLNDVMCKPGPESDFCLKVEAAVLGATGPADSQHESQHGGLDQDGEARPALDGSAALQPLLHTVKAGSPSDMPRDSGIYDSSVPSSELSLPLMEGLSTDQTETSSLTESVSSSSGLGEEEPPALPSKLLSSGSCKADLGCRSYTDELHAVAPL
Protocol: as §2

## SM17: humanized anti-IL17RB monoclonal antibody, human IgG4 isotype; HC SEQ ID NO: 32, LC SEQ ID NO: 33
TSLP
  Intensity of specific antigen binding, TSLP coated on ELISA strips: +
IL-17RB
  Intensity of specific antigen binding, IL-17RB coated on ELISA strips: +++
IL-33
  Intensity of specific antigen binding, IL-33 coated on ELISA strips: −
hIL17RC
  binding of SM17 to IL17RC (in words): No obvious bindings
hIL 17RD
  binding of SM17 to IL17RD (in words): No obvious bindings
